From US20070196872A1

Legend:
Frizzled4 = Frizzled4 (UniProt Q9ULV1); assay: cell-based or functional assay
LRP5 (Zmax1) = LRP5 (Zmax1) (UniProt O75197); assay: cell-based or functional assay
Sequence of UniProt O75197 (O75197 32-1615 limits assumed): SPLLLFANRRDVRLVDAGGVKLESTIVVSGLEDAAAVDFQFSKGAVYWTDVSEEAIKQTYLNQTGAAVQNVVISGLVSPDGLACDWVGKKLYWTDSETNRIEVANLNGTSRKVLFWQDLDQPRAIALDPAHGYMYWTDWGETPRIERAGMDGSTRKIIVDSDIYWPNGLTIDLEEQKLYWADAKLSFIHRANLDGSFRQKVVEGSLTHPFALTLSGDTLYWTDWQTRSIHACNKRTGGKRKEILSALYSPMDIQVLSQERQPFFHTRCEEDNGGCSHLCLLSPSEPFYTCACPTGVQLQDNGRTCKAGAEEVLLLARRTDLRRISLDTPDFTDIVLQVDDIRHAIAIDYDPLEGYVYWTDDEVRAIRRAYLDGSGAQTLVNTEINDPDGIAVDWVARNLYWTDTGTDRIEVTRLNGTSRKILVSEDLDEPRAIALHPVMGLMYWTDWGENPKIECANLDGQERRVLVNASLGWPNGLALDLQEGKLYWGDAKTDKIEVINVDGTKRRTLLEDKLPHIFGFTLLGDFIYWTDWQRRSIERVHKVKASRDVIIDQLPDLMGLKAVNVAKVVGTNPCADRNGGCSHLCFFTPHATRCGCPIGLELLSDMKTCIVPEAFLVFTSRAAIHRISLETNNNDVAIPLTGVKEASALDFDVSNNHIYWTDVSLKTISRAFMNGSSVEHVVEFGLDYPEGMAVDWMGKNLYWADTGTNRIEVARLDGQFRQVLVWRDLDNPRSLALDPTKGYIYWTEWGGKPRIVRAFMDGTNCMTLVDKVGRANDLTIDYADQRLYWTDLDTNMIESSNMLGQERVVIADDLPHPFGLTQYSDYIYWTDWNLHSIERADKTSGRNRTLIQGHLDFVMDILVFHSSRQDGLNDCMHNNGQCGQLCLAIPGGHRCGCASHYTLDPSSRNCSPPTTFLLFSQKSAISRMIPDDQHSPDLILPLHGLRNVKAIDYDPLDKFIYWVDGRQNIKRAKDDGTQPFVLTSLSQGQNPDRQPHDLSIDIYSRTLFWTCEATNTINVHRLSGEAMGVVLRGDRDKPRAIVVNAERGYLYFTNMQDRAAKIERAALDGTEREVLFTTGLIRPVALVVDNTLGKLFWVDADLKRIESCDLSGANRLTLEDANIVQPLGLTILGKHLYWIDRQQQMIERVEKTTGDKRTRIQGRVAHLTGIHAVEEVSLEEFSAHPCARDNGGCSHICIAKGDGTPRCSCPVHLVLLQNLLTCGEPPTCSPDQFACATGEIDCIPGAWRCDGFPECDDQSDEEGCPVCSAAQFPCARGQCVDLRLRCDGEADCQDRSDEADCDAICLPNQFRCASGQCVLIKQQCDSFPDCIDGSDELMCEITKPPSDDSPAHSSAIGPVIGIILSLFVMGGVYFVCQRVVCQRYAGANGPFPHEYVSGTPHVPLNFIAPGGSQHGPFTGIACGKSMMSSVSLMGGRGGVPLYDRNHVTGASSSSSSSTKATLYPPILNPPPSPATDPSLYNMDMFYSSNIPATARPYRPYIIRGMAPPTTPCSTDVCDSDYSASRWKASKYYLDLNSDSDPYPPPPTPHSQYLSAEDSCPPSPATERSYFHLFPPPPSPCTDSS

Sequence of UniProt Q9ULV1 (Q9ULV1 37-537 limits assumed): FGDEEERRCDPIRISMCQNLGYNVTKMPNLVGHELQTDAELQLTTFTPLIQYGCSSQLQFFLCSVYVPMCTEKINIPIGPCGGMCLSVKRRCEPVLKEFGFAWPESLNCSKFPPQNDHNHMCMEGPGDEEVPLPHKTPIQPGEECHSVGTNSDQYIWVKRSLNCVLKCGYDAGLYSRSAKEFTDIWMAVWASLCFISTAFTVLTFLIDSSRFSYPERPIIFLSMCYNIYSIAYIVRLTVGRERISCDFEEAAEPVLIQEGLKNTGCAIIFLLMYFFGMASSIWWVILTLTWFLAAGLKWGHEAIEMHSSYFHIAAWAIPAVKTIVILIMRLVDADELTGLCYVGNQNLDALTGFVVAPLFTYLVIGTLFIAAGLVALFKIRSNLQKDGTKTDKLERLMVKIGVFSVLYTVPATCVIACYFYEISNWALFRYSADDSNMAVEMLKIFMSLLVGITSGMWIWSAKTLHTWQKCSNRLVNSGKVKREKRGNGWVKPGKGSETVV
Sequence of Norrin (Q00604 25-133 limits assumed): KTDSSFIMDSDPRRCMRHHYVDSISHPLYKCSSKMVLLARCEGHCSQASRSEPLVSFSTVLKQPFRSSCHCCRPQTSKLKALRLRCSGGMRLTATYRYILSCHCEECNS

- TCF activity, further enhancement when Fz4, LRP5 and Norrin were all co-transfected in U20S cells (Frizzled4): 2 to 6 fold
- TCF response (TCF-luci to renilla), Norrin and Fz4 co-transfected in HEK-293A cells (Frizzled4): 6 fold
- TCF-signal, LRP5 co-transfected along with Fz4 and Norrin in HEK-293 cells (Frizzled4): < 16 fold
- ratio of TCF-luci to renilla luminescence, Norrin cDNA alone transfected in U20S cells (endogenous Fz4 inferred) (Frizzled4): 2 to 3 fold
- ratio of TCF-luci to renilla signal, Fz4 and Norrin co-transfected in U20S cells (Frizzled4): 15 fold
- ratio of TCF-luci to renilla luminescence, Norrin and LRP5 co-transfected in U20S cells (LRP5 (Zmax1)): 6 fold
Substance: Norrin (from UniProt Q00604 25-133) (ligand)
